Source: the Immune Epitope Database (IEDB)
Each block holds one sequence with its values, some of them ahead of it.

Assays:
HLA-B*15:17 = assay: IEDB peptide-MHC binding, purified MHC/direct/fluorescence; filed as Kd, often an IC50 or EC50 that approximates it; ≥ and ≤ were set here for values at or beyond the usual limits of such assays; conditions: source organism: Escherichia coli
HLA-A*01:01 [1] = assay: IEDB peptide-MHC binding, purified MHC/competitive/fluorescence; filed as Kd, often an IC50 or EC50 that approximates it; ≥ and ≤ were set here for values at or beyond the usual limits of such assays
HLA-B*57:01 = assay: IEDB peptide-MHC binding, purified MHC/competitive/radioactivity; filed as Kd, often an IC50 or EC50 that approximates it; ≥ and ≤ were set here for values at or beyond the usual limits of such assays
HLA-B*58:01 [2] = assay: as above
HLA-A*32:01 = assay: as above
HLA-A*31:01 [3] = assay: IEDB peptide-MHC binding, purified MHC/competitive/fluorescence; filed as Kd, often an IC50 or EC50 that approximates it; ≥ and ≤ were set here for values at or beyond the usual limits of such assays
HLA-A*11:01 = assay: IEDB peptide-MHC binding, purified MHC/direct/fluorescence; filed as Kd, often an IC50 or EC50 that approximates it; ≥ and ≤ were set here for values at or beyond the usual limits of such assays
HLA-A*03:01 [4] = assay: as above
HLA-B*15:01 [5] = assay: IEDB peptide-MHC binding, purified MHC/competitive/fluorescence; ≥ and ≤ were set here for values at or beyond the usual limits of such assays
HLA-A*02:01 [6] = assay: as above
HLA-A*03:01 [7] = assay: IEDB peptide-MHC binding, purified MHC/competitive/fluorescence; filed as Kd, often an IC50 or EC50 that approximates it; ≥ and ≤ were set here for values at or beyond the usual limits of such assays; conditions: source organism: Salmonella enterica subsp. enterica serovar Typhi
HLA-A*24:02 = assay: IEDB peptide-MHC binding, purified MHC/competitive/fluorescence; ≥ and ≤ were set here for values at or beyond the usual limits of such assays; conditions: source organism: Zaire ebolavirus
HLA-A*02:01 [8] = assay: IEDB peptide-MHC binding, purified MHC/competitive/fluorescence; filed as Kd, often an IC50 or EC50 that approximates it; ≥ and ≤ were set here for values at or beyond the usual limits of such assays; conditions: source organism: human gammaherpesvirus 4
HLA-A*02:03 = assay: as above; conditions: source organism: human gammaherpesvirus 4
HLA-B*15:01 [9] = assay: IEDB peptide-MHC binding, purified MHC/direct/fluorescence; filed as Kd, often an IC50 or EC50 that approximates it; ≥ and ≤ were set here for values at or beyond the usual limits of such assays; conditions: source organism: Giardia lamblia ATCC 50803
HLA-A*26:01 = assay: as above; conditions: source organism: Giardia lamblia ATCC 50803
HLA-A*31:01 [10] = assay: as above; conditions: source organism: Giardia lamblia ATCC 50803
HLA-B*58:01 [11] = assay: as above; conditions: source organism: Giardia lamblia ATCC 50803
HLA-A*01:01 [12] = assay: as above; conditions: source organism: Giardia lamblia ATCC 50803
HLA-B*27:05 = assay: as above; conditions: source organism: Giardia lamblia ATCC 50803
HLA-A*02:01 [13] = assay: as above; conditions: source organism: Giardia lamblia ATCC 50803
HLA-B*44:02 = assay: as above; conditions: source organism: Giardia lamblia ATCC 50803
HLA-A*69:01 = assay: as above; conditions: source organism: Giardia lamblia ATCC 50803
HLA-B*40:01 = assay: as above; conditions: source organism: Giardia lamblia ATCC 50803
HLA-B*08:01 = assay: as above; conditions: source organism: Giardia lamblia ATCC 50803
HLA-B*07:02 = assay: as above; conditions: source organism: Giardia lamblia ATCC 50803
HLA-A*02:06 = assay: IEDB peptide-MHC binding, purified MHC/competitive/radioactivity; filed as Kd, often an IC50 or EC50 that approximates it; ≥ and ≤ were set here for values at or beyond the usual limits of such assays; conditions: source organism: Dengue virus 1 Singapore/S275/1990
HLA-A*31:01 [14] = assay: as above; conditions: source organism: Dengue virus 2 Jamaica/1409/1983
HLA-A*24:03 = assay: IEDB peptide-MHC binding, purified MHC/competitive/fluorescence; filed as Kd, often an IC50 or EC50 that approximates it; ≥ and ≤ were set here for values at or beyond the usual limits of such assays
[15] = source organism: Dengue virus 2 Jamaica/1409/1983
[16] = source organism: Dengue virus 4 Philippines/H241/1956
[17] = source organism: Dengue virus 3 Martinique/1243/1999
[18] = source organism: Yersinia pestis Antiqua
[19] = source organism: Vaccinia virus WR
[20] = source organism: Dengue virus 4 Dominica/814669/1981
[21] = source organism: Zaire ebolavirus
[22] = source organism: Dengue virus 1 Brazil/97-11/1997
[23] = source organism: Burkholderia mallei
[24] = source organism: Yellow fever virus
[25] = source organism: Giardia lamblia ATCC 50803
[26] = source organism: Dengue virus 1 Singapore/S275/1990
[27] = source organism: Bacillus anthracis

- Kd (HLA-B*15:17): 1.5 nM
Sequence: RTAFLRFWL

Sequence: VSFNQNLEY
- Kd (HLA-A*01:01 [1]; source organism: Influenza A virus (A/goose/Guangdong/1/1996(H5N1))): 25.9 nM

Sequence: KSYAQMWTL
- Kd (HLA-B*57:01; [15]): 6.59 nM
- Kd (HLA-B*58:01 [2]; [15]): 6.37 nM
- Kd (HLA-A*32:01; [15]): 16.4 nM

Sequence: SSSNPTIEEG
- Kd (HLA-B*58:01 [2]; [16]): 5990 nM

Sequence: ASSLLRNDVP
- Kd (HLA-B*57:01; [17]): 11600 nM
- Kd (HLA-B*58:01 [2]; [17]): 745 nM

Sequence: WIYDPRNQK
- Kd (HLA-A*31:01 [3]; [18]): 107 nM
- Kd (HLA-A*11:01; [18]): 375 nM
- Kd (HLA-A*03:01 [4]; [18]): 29.4 nM

Sequence: KTQRSGALW
- Kd (HLA-B*57:01; [16]): 105 nM
- Kd (HLA-B*58:01 [2]; [16]): 6.11 nM

- Kd (HLA-A*01:01 [1]; source organism: Escherichia coli APEC O1): ≥ 20000 nM
Sequence: ASDHFVETT

Sequence: FLVINRLGA
- IC50 (HLA-B*15:01 [5]; [19]): ≥ 86900 nM
- IC50 (HLA-A*02:01 [6]; [19]): 795 nM

Sequence: ATTFARFLY
- Kd (HLA-A*01:01 [1]; source organism: Salmonella enterica subsp. enterica serovar Typhi): 19.3 nM
- Kd (HLA-A*03:01 [7]): 202 nM

Sequence: ATGPILTLW
- Kd (HLA-B*57:01; [20]): 8.07 nM
- Kd (HLA-B*58:01 [2]; [20]): 13.1 nM

Sequence: IQYPTAWQS
- IC50 (HLA-A*24:02): 33500 nM
- IC50 (HLA-B*15:01 [5]; [21]): 25700 nM
- IC50 (HLA-A*02:01 [6]; [21]): 30600 nM

Sequence: KSWLVHKQW
- Kd (HLA-B*57:01; [22]): 5.87 nM
- Kd (HLA-B*58:01 [2]; [22]): 3.03 nM
- Kd (HLA-A*32:01; [22]): 16.9 nM

Sequence: RVYRRRLAQ
- Kd (HLA-A*31:01 [3]; source organism: Burkholderia pseudomallei 1106a): 40.5 nM
- Kd (HLA-A*11:01; [23]): ≥ 20000 nM
- Kd (HLA-A*03:01 [4]; [23]): 323 nM

Sequence: RQRVIPVYQ
- IC50 (HLA-B*15:01 [5]; [21]): 6370 nM

Sequence: WMAPSLTES
- IC50 (HLA-B*15:01 [5]; [21]): 11400 nM
- IC50 (HLA-A*02:01 [6]; [21]): 6450 nM

Sequence: SVRDRLARL
- Kd (HLA-A*02:01 [8]): 407 nM
- Kd (HLA-A*02:03): 12.3 nM

Sequence: MSSEGAWKHA
- Kd (HLA-B*57:01; [16]): 134 nM
- Kd (HLA-B*58:01 [2]; [16]): 254 nM

Sequence: TASLVMLLVH
- Kd (HLA-B*57:01; [20]): 7390 nM
- Kd (HLA-B*58:01 [2]; [20]): 1350 nM

Sequence: KVVNRWLFR
- Kd (HLA-A*31:01 [3]; [24]): 1.1 nM
- Kd (HLA-A*11:01; [24]): 4.5 nM

Sequence: EFFDTEPQL
- Kd (HLA-A*11:01; [25]): ≥ 20000 nM
- Kd (HLA-B*15:01 [9]): ≥ 20000 nM
- Kd (HLA-A*26:01): ≥ 20000 nM
- Kd (HLA-A*31:01 [10]): ≥ 20000 nM
- Kd (HLA-B*58:01 [11]): ≥ 20000 nM
- Kd (HLA-A*01:01 [12]): ≥ 20000 nM
- Kd (HLA-B*27:05): ≥ 20000 nM
- Kd (HLA-A*02:01 [13]): ≥ 20000 nM
- Kd (HLA-B*44:02): ≥ 20000 nM
- Kd (HLA-A*69:01): ≥ 20000 nM
- Kd (HLA-B*40:01): 2770 nM
- Kd (HLA-B*08:01): ≥ 20000 nM
- Kd (HLA-A*03:01 [4]; [25]): ≥ 20000 nM
- Kd (HLA-B*07:02): ≥ 20000 nM

Sequence: MASSVLLWMA
- Kd (HLA-B*57:01; [26]): 859 nM
- Kd (HLA-A*02:06): 90.6 nM
- Kd (HLA-B*58:01 [2]; [26]): 223 nM

Sequence: HSSAAQRRGR
- Kd (HLA-B*57:01; [15]): 71.8 nM
- Kd (HLA-A*31:01 [14]): 24.1 nM
- Kd (HLA-B*58:01 [2]; [15]): 11300 nM

Sequence: GLHATFMPK
- Kd (HLA-A*31:01 [3]; source organism: Listeria monocytogenes EGD-e): 151 nM
- Kd (HLA-A*11:01; [27]): 6.2 nM
- Kd (HLA-A*03:01 [4]; [27]): 37.2 nM

Sequence: KFHQIEKEF
- Kd (HLA-A*24:03; source organism: Influenza A virus (A/swine/Hong Kong/81/1978(H3N2))): 0.6 nM

Sequence: FHKNMIKTY
- IC50 (HLA-B*15:01 [5]; source organism: Vaccinia virus): 21800 nM

Sequence: GWTETDSSF
- Kd (HLA-A*24:03; source organism: Influenza A virus (A/parrot/Ulster/73(H7N1))): 304 nM
